Assay [1] deals with CAL1-GFP-LacI [Drosophila melanogaster]. The assay can be described thus: LacO-tethering recruitment assay (HA immunofluorescence intensity at LacO). The settings on record: parent: 0.18; read off a plot.
The target in assay [2] is GFP-LacI-dCENP-C [Drosophila melanogaster]. The description is as above. The settings on record: parent: 1.2; read off a plot.

Here are results for two substances from article PMC6900781.

In the case of “HA-dCENP-C mutant L1357E; L1406E [Drosophila melanogaster] / CAL1-GFP-LacI [Drosophila melanogaster] chain 1 L1357E, chain 1 L1406E”, the response (normalized to GFP) in assay [1] is 0.07.
As for “HA-dCENP-C mutant L1357E; L1406E [Drosophila melanogaster] / GFP-LacI-dCENP-C [Drosophila melanogaster] chain 1 L1357E, chain 1 L1406E”, in assay [2], the response (normalized to GFP) was 0.15.
